Assays:
[1] = target: LGTV NS2B/3pro_D19A_E117A (Langat virus) (UniProt P29837); assay: pull-down
[2] = target: LGTV NS2B/3pro_E117A (Langat virus) (UniProt P29837); assay: pull-down

GFP-tagged TRAF6 (TRAF6-GFP) (from UniProt Q9Y4K3 1-522) (natural protein)
percent decrease in pull down of TRAF6 relative to NS2B/3pro WT (densitometry) [1]: 58.6%
percent decrease in pull down of TRAF6 relative to NS2B/3pro WT (densitometry) [2]: 56.1%
